In this experiment the target is SERCA1a, mouse (endogenous, mouse myotubes) (mouse) (UniProt Q8R429). In words: cell-based or functional assay.
Chain of UniProt Q8R429 (Q8R429 whole entry): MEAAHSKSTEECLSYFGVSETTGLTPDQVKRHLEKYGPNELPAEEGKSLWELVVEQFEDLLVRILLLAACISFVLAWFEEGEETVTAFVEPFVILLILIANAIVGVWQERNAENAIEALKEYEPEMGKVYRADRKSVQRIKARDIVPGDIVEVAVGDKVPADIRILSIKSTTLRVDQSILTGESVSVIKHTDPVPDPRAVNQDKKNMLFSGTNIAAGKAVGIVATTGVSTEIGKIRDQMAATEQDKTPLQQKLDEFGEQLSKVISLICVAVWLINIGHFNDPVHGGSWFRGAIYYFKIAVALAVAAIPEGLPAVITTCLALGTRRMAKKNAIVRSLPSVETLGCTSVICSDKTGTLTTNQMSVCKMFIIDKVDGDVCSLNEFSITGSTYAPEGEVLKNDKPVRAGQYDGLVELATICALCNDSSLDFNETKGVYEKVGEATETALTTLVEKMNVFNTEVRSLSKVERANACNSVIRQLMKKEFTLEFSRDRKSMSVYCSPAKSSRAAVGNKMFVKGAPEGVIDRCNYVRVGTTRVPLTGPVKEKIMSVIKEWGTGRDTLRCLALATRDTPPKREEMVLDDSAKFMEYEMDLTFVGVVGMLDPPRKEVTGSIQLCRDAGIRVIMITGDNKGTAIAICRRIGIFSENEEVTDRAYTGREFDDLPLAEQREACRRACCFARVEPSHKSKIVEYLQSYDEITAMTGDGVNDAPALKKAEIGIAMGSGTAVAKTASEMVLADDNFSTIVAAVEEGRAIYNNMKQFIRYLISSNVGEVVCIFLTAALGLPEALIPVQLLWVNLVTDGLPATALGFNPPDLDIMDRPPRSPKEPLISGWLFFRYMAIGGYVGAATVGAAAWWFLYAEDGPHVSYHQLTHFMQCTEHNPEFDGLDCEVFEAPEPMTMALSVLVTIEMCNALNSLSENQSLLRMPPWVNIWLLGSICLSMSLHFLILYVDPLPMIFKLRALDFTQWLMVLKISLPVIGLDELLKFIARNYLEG

Regarding “NHL-Del (TRIM32 lacking the NHL repeat) expressed in mouse myotubes (from UniProt Q13049 1-357)”, the Caffeine response (normalized ratio to vector control) is 0.97, the KCl response (normalized ratio to vector control) was 0.94 and the Releasable Ca^2+ level from SR (normalized ratio to vector control) was 0.99.
The corresponding values for “wild-type TRIM32 expressed in mouse myotubes (from UniProt Q13049 1-653)” are 1.22, 1.27 and 1.48.
